Data on 1 molecule can be found in article PMC3154279, “ADP-Ribosylation Factor 6 Mediates E-Cadherin Recovery by Chemical Chaperones” (PLoS ONE, 2011).

What all share (experiment): proximity ligation; Duolink PLA on methanol-fixed CHO cells stably expressing WT or mutant hE-cadherin, treated with medium or 2% DMSO for 24 h; antibody pairs against E-cadherin and PIP5K1C, p120 or β-catenin; spots per cell counted (BlobFinder), relative number of blobs per cell, n = 3
The target in assay [1] is Type Iγ phosphatidylinositol phosphate kinase (PIPKIγ) (Chinese hamster (endogenous in CHO)).
Assay [2] deals with p120-catenin (Chinese hamster (endogenous in CHO)).
Another assay concerns the target T1, β-catenin (Chinese hamster (endogenous in CHO), UniProt G3H996 1-781).
T1 construct: β-catenin, endogenous in CHO (Chinese hamster ovary) cells, detected with an anti-β-catenin antibody; source: endogenous, CHO cells, fixed
T1 sequence (looked up): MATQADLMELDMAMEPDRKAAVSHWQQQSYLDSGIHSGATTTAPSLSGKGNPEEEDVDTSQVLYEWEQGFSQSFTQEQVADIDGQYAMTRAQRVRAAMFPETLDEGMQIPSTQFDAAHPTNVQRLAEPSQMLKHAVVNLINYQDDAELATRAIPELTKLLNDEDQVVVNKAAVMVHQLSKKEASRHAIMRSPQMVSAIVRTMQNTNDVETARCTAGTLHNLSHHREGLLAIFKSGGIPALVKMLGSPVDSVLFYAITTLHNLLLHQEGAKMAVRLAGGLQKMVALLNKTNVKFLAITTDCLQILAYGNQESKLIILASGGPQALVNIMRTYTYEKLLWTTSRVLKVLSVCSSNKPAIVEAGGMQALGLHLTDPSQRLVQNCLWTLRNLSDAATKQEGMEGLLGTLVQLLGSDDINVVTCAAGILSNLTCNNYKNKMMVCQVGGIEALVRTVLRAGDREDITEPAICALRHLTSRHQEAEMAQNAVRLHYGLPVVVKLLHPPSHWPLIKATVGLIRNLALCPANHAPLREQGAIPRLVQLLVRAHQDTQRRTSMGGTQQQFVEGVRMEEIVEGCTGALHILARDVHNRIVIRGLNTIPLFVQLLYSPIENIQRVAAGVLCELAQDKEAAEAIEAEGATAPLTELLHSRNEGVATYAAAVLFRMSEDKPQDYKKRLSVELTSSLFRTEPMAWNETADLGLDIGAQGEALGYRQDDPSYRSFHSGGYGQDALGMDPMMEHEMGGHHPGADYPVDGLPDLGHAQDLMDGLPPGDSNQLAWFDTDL
The settings on record: partners not purified.

B1: WT human E-cadherin (natural protein, UniProt P12830 155-882, looked up)
chain: DWVIPPISCPENEKGPFPKNLVQIKSNKDKEGKVFYSITGQGADTPPVGVFIIERETGWLKVTEPLDRERIATYTLFSHAVSSNGNAVEDPMEILITVTDQNDNKPEFTQEVFKGSVMEGALPGTSVMEVTATDADDDVNTYNAAIAYTILSQDPELPDKNMFTINRNTGVISVVTTGLDRESFPTYTLVVQAADLQGEGLSTTATAVITVTDTNDNPPIFNPTTYKGQVPENEANVVITTLKVTDADAPNTPAWEAVYTILNDDGGQFVVTTNPVNNDGILKTAKGLDFEAKQQYILHVAVTNVVPFEVSLTTSTATVTVDVLDVNEAPIFVPPEKRVEVSEDFGVGQEITSYTAQEPDTFMEQKITYRIWRDTANWLEINPDTGAISTRAELDREDFEHVKNSTYTALIIATDNGSPVATGTGTLLLILSDVNDNAPIPEPRTIFFCERNPKPQVINIIDADLPPNTSPFTAELTHGASANWTIQYNDPTQESIILKPKMALEVGDYKINLKLMDNQNKDQVTTLEVSVCDCEGAAGVCRKAQPVEAGLQIPAILGILGGILALLILILLLLLFLRRRAVVKEPLLPPEDDTRDNVYYYDEEGGGEEDQDFDLSQLHRGLDARPEVTRNDVAPTLMSVPRYLPRPANPDEIGNFIDENLKAADTDPTAPPYDSLLVFDYEGSGSEAASLSSLNSSESDKDQDYDYLNEWGNRFKKLADMYGGGEDD
notes: E-cadherin, human, wild type, expressed from a transduced vector in CHO cells; also called WT hE-cad; WT hEcadherin; source: CHO cells (ATCC CCL-61), stably transduced, in fixed cells
Consider B1, for which the fold increase of PLA blobs per cell with 2% DMSO against untreated WT in assay [1] came out at 2.3 fold; in assay [2], 4.2 fold; with β-catenin, 1.8 fold.
